How the values were obtained:
[1] = target: H1 HA A/Texas/36/1991 (H1N1), recombinant soluble trimer (influenza A virus)
[2] = target: H3 HA A/Texas/50/2012, recombinant soluble trimer (influenza A virus)
[3] = target: H1 HA A/Solomon Islands/03/2006 (H1N1), recombinant soluble trimer (influenza A virus)

Row | Substance | EC50 [1] [µg/mL] | EC50 [2] [µg/mL] | EC50 [3] [µg/mL] | EC50 relative to wild type rFluA-20 [3] [fold]
1 | rFluA-20 heavy chain mutant C101A (antibody) | 0.15 | 0.39 | 0.2 | –
2 | rFluA-20 light chain mutant N53A (antibody) | 0.04 | 0.09 | 0.05 | –
3 | rFluA-20 light chain mutant Q55A (antibody) | 0.23 | – | – | > 100

Reference: US20220387578A1
